Here are results for three molecules from paper PMC4596477, “Interaction of Myosin Phosphatase Target Subunit (MYPT1) with Myosin Phosphatase-RhoA Interacting Protein (MRIP): A Role of Glutamic Acids in the Interaction” (PLoS ONE, 2015).

A short description of data set [1]: AUC sedimentation velocity of MRIP peptides alone (molar mass, sedimentation coefficient, oligomeric state). In kind it is physicochemical. The source says: The RMSD of the fit was 0.008.
(§1) The cDNA fragment encoding MRIP peptides were amplified using a full-length MRIP cDNA as a template with the following primer pairs: MRIP^545-878, 5’-[…]/5’[…]; MRIP^724-878, 5’-[…]/5’-[…]; MRIP^724-837, 5’-[…]/5’-[…]. The PCR products were ligated into pCR2.1-TOPO using the TA cloning system and sequenced in both directions. The IMPACT™ (Intein Mediated Purification with an Affinity Chitin-binding Tag) Kit (New England BioLabs) was used to express peptides in bacteria to obtain tag-free peptides. The PCR amplicon encoding MRIP peptides were fused in frame to the chitin binding domain of pTYB12 vector utilizing the NdeI/EcoRI restriction sites. The expression vectors for the MYPT1 peptides, CCLR (residues 924–1030), CC (residues 924–990), and LR (residues 991–1030) were constructed as described: In the reference literature, CCLR and LR were named CCLZ and LZ, respectively. Recombinant peptides were produced in Escherichia coli strain BL21 (DE3) and purified using chitin beads according to the manufacturer's protocol. For further purification, the eluent from chitin beads was loaded on a Vydac C8 reversed phase column and subjected to HPLC using an acetonitrile gradient. Purity and identity of the peptides were confirmed by polyacrylamide gel electrophoresis (PAGE) and mass spectrometry. For the mutagenesis study of LR, the wild-type and mutant LR peptides were synthesized, purified by reverse-phase HPLC, and lyophilized to dryness at the peptide core in Boston Biomedical Research Institute.
Sedimentation velocity experiments were done on a Beckman Instruments Optima XL-I analytical ultracentrifuge equipped with Rayleigh optics. The cells were equipped with sapphire windows and 12 mm charcoal-filled Epon centerpieces. Apparent sedimentation coefficient distribution patterns were computed by the time derivative method. Peptides were dialyzed against 50 mM potassium phosphate buffer (pH 7.4) containing 100 mM KCl, and 1 mM DTT at 4°C overnight and then subjected to AUC at 50,000 rpm and 20°C. Molar mass was computed from sedimentation velocity profiles using SedAnal, which uses a nonlinear least-squares curve fitting algorithm to fit data to solutions of the differential equation (the Lamm equation) describing sedimentation. Fits were performed on time difference data to remove the time-independent systematic baseline components. Values of s and D produced by the fitting procedure were substituted into the Svedberg equation to obtain the molar mass of the protein, M: M=RT/(1−ν¯ρ)s20,wo/D20,wo where ρ is the density of the buffer and ν¯ is the partial specific volume of the protein. Sednterp was employed to compute values of ρ and ν¯ from the amino acid sequence.

The subject of the next data set is CCLR. Nature of the data set: AUC interaction of MRIP peptides with MYPT1 peptide CCLR (residues 924–1030). In kind it is binding. Conditions: equimolar mixtures (MRIP^545-878 14 μM each; MRIP^724-878 30 μM each; MRIP^724-837 67 μM each) and 3-, 9-fold dilutions, pH 7.4, 100 mM KCl, 20°C. As for the experimental part: AUC was performed to examine the interactions of MRIP^545-878, MRIP^724-878, or MRIP^724-837 individually with the MYPT1 peptide (residues 924–1030) containing a putative coiled coil domain (CC) and the leucine repeat region (LR), designated as CCLR.
Fig 3 All MRIP peptides bind to the C-terminal region of MYPT1, CCLR (residues 924–1030). Concentration-normalized time derivative g(s*) graphs of the MRIP peptides by themselves and in equimolar mixtures: Lines, CCLR (30 μM); +, individual MRIP peptides by themselves (MRIP^545-878, 14 μM; MRIP^724-878, 50 μM; MRIP^724-837, 67 μM); black filled-in circles, original equimolar mixtures (MRIP^545-878, 14 μM each; MRIP^724-878, 30 μM each; MRIP^724-837, 67 μM each); open circles, 3-fold dilutions; gray filled-in circles, 9-fold dilutions.
as §1, with “For the mutagenesis study of LR, the wild-type and mutant LR peptides were synthesized, purified by reverse-phase HPLC, and lyophilized to dryness at the peptide core in Boston Biomedical Research Institute.” left out

In the next data set the target is LR. Nature of the data set: SPR, MRIP^724-878 as analyte over immobilized LR. Conditions: Biacore 3000, 25°C, analyte MRIP^724-878 (dimeric) 85.6–0.7 μM, LR immobilized (244.8 RU), nebulin-derived peptide reference, 50 mM potassium phosphate pH 7.4, 100 mM KCl, steady-state affinity, mean and standard deviation, 6 experiments. In kind it is binding. As for the experimental part: Analytes CCLR, CC, LR: Interactions between analytes, CCLR (167–1 μM), CC (318–10 μM), and LR (569–5 μM) with immobilized ligand, MRIP^724-878 (1800 RU) after correction for nonspecific binding using G-actin (2230 RU). Shown is a representative out of 9 experiments for CCLR and 8 for LR in each, duplicates or triplicates. Insets show fittings of steady-state affinity. Ligand LR: Interaction of analyte, MRIP^724-878 (85.6–0.7 μM) with immobilized ligand, LR (244.8 RU) after correction for nonspecific binding using a nebulin-derived peptide (600 RU). Shown is a representative out of 6 experiments.
This could be explained by the fact that free, solution-based MRIP^724-878 might have preserved homodimers better than the amine coupled. Consequently, we speculated that the MRIP^724-878 dimer might have higher MYPT1-binding affinity than its monomer.
Binding analyses of SPR were conducted on a Biacore 3000 (GE Healthcare) at 25°C. Sensor chips and reagents for immobilization (1-ethyl-3-(3-dimethylaminopropyl) carbodiimide, N-hydroxyl-succinimide, and ethanolamine) were purchased from GE Healthcare. Peptides were immobilized onto a CM5 sensor chip at 232–5841 resonance units (RU) using amine coupling. Binding studies were done using two-fold serial dilutions of the peptides in 50 mM potassium phosphate buffer (pH 7.4) containing 100 mM KCl. […]

The nature of data set [2]: AUC of MYPT1 peptides alone (concentration dependence, self-association). The format is physicochemical. As to conditions: CC alone, 107 μM and 3-, 9-fold dilutions, MRIP^724-878 alone, 50 μM and 3-, pH 7.4, 20°C. The source says: To determine the minimal MRIP-binding region of MYPT1, AUC was employed to examine interactions between sub-domains of CCLR, CC (residues 924–990) and LR (residues 991–1030) with MRIP^724-878 (Fig 4A). CC is the putative coiled coil domain and LR contains 16 upstream amino acid residues (residues 991–1006) in addition to the leucine repeat (residues 1007–1028). MRIP^724-878 was chosen because of its good fit to a single component, single-species model. […] Global fitting of the mixture to a two-component model produced a good fit and the RMSD of the fit was 0.010 (Fig 4B; Fitting of CC).
Fig 4 LR contains sufficient residues for the MYPT1/MRIP interaction. […] CC; Concentration-normalized time derivative g(s*) plots of CC, MRIP^724-878, and equimolar mixtures of the two peptides: Black filled-in circles, an original CC alone (107 μM); dark gray filled-in circles, a 3-fold dilution of CC alone; light gray filled-in circles, a 9-fold dilution of CC alone; black filled-in triangles, an original MRIP^724-878 alone (50 μM); dark gray filled-in triangles, a 3-fold dilution of MRIP^724-878 alone; light gray filled-in triangles, a 9-fold dilution of MRIP^724-878 alone; a black line, an original equimolar mixture of MRIP^724-878/CC (50 μM each): a dark gray line, a 3-fold dilution of the mixture; a light gray line, a 9-fold dilution of the mixture. […]

For data set [3] the following is noted: GST-tag, expressed in bacteria, after affinity purification.
Protocol: Sedimentation velocity was performed over a range of concentrations of MRIP^545-878 (1.5–13.6 μM), MRIP^724-878 (4.7–42.3 μM), and MRIP^724-837 (7.5–67.1 μM) (Fig 2A).
To elucidate the stoichiometries of the MRIP peptides, the SedAnal program was used for curve fitting (Fig 2B). […] Diffusion contains important information about the shape of the molecule and that information is used in the data analysis. The recovery of samples after centrifugation is essentially 99% of the loading materials. […] The root mean square deviation (RMSD) of the fit was 0.010. […] The RMSD of the fit was 0.008.
We expressed and purified the MRIP peptide (residues 545–929) and the full-length MRIP protein using a chitin-binding tag and a GST-tag, respectively in bacteria.
For the next data set, the system named is full-length MYPT1. As to conditions: immunoprecipitation and immunoblotting; ref [7],[11],[12]; cited from earlier work. The text has this: It is, however, not clear which residues of MRIP are critical for its binding to MYPT1.

B1: MRIP^724-878: recombinant tag-free MRIP peptide, residues 724–878; CC2-CC4 (protein)
chain: CERGFAAMEETHQKKIEDLQRQHQRELEKLREEKDRLLAEETAATISAIEAMKNAHREEMERELEKSQRSQISSVNSDVEALRRQYLEELQSVQRELEVLSEQYSQKCLENAHLAQALEAERQALRQCQRENQELNAHNQELNNRLAAEITRLRT
modifications: left off: chitin-binding domain (IMPACT kit, pTYB12), N-terminal, cleaved
notes: recombinant tag-free MRIP peptide, residues 724–878; CC2-CC4
Consider B1, for which the molar mass in data set [1] (AUC sedimentation velocity, SedAnal global fit to single component, single-species ideal model, 4.7–42.3 μM, 50 mM potassium phosphate pH 7.4, 100 mM KCl, 1 mM DTT, 20°C, CL 0.95) was 38.2±0.3 kDa. Moreover, the “oligomeric state in solution” value in data set [1] (AUC sedimentation velocity, pH 7.4, 100 mM KCl, 20°C) was “forms a tight dimer in solution”. The same molecule returned a sedimentation coefficient in data set [1] (AUC sedimentation velocity, single component, single-species ideal model, 4.7–42.3 μM, pH 7.4, 100 mM KCl, 20°C, CL 0.95) of 2.007±0.002 S. Moreover, the “concentration dependence of g(s*) curves” value in data set [1] (AUC, MRIP^545-878 1.5–13.6 μM, MRIP^724-878 4.7–42.3 μM, MRIP^724-837 7.5–67.1 μM, pH 7.4, 20°C) was “no-concentration dependence and the presence of one species in solution”; in data set [2] it was “superimposable, indicating concentration-independence”. In the data set with CCLR, the “binding to CCLR (shift in g(s*) curves)” value was “bind to CCLR”. The molecule also came in with an equilibrium dissociation constant (Kd) at LR of 40 ± 19 µM.

B2: GST-tagged full-length MRIP: full-length MRIP protein with GST-tag, expressed in bacteria (protein, UniProt Q6WCQ1 1-1025, looked up)
chain: MSAAKENPCRKFQANIFNKSKCQNCFKPRESHLLNDEDLTQAKPIYGGWLLLAPDGTDFDNPVHRSRKWQRRFFILYEHGLLRYALDEMPTTLPQGTINMNQCTDVVDGEGRTGQKFSLCILTPEKEHFIRAETKEIVSGWLEMLMVYPRTNKQNQKKKRKVEPPTPQEPGPAKVAVTSSSSSSSSSSSIPSAEKVPTTKSTLWQEEMRTKDQPDGSSLSPAQSPSQSQPPAASSLREPGLESKEEESAMSSDRMDCGRKVRVESGYFSLEKTKQDLKAEEQQLPPPLSPPSPSTPNHRRSQVIEKFEALDIEKAEHMETNAVGPSPSSDTRQGRSEKRAFPRKRDFTNEAPPAPLPDASASPLSPHRRAKSLDRRSTEPSVTPDLLNFKKGWLTKQYEDGQWKKHWFVLADQSLRYYRDSVAEEAADLDGEIDLSACYDVTEYPVQRNYGFQIHTKEGEFTLSAMTSGIRRNWIQTIMKHVHPTTAPDVTSSLPEEKNKSSCSFETCPRPTEKQEAELGEPDPEQKRSRARERRREGRSKTFDWAEFRPIQQALAQERVGGVGPADTHEPLRPEAEPGELERERARRREERRKRFGMLDATDGPGTEDAALRMEVDRSPGLPMSDLKTHNVHVEIEQRWHQVETTPLREEKQVPIAPVHLSSEDGGDRLSTHELTSLLEKELEQSQKEASDLLEQNRLLQDQLRVALGREQSAREGYVLQATCERGFAAMEETHQKKIEDLQRQHQRELEKLREEKDRLLAEETAATISAIEAMKNAHREEMERELEKSQRSQISSVNSDVEALRRQYLEELQSVQRELEVLSEQYSQKCLENAHLAQALEAERQALRQCQRENQELNAHNQELNNRLAAEITRLRTLLTGDGGGEATGSPLAQGKDAYELEVLLRVKESEIQYLKQEISSLKDELQTALRDKKYASDKYKDIYTELSIAKAKADCDISRLKEQLKAATEALGEKSPDSATVSGYDIMKSKSNPDFLKKDRSCVTRQLRNIRSKSVIEQVSWDT
modifications: full-length GST tag
Turning to B2, the precipitation result in data set [3] is “precipitated after affinity purification”.

B3: MRIP: Myosin phosphatase-RhoA interacting protein (protein, UniProt Q6WCQ1 1-1025, looked up)
chain: B2 chain
modifications: full-length
With B3, the “interaction with full-length MYPT1” value in the data set on full-length MYPT1 is given as “interacts with the full-length MYPT1”.
